In US20040265932A1 (AbbVie / Abbott, published 2004):

Biological target: T1, Mammaglobin polypeptide from breast cancer tissue extract (human, UniProt Q13296 19-93, glycoprotein (Asn 53 and/or Asn 68 may carry sugars))
T1 construct: native protein in tissue extract, 17-23 kD reduced
Assay: legend of FIG. 20A-D; MonoQ fractions, dot blots and Western blots
Protocol: C. Ion Exchange Chromatography The breast cancer tissue extract derived from the patient with invasive, poorly differentiated adenocarcinoma (breast) (FIG. 11, lanes. 4 and 10) was purified using anion exchange chromatography. Specifically, the 800 uL extract was applied to a Mono Q 5/5 column (Pharmacia) equilibrated with 20 mM piperazine, pH 6.0. The proteins were eluted using a linear gradient of sodium chloride. The flow rate was 1 mL/min; the gradient was 20 mM sodium chloride per milliliter of buffer; and the elution time was 50 minutes; creating an elution profile that went from 0 to 1000 mM sodium chloride. The sample loading time was 30 minutes prior to application of the elution gradient. Each 1 mL fraction was sampled. One hundred microliters of each fraction was boiled in the presence of 0.1% beta-mercaptoethanol and was then applied to a well of a dot blot apparatus and the volume was suctioned through a piece of nitrocellulose. The nitrocellulose filter was then developed with the same procedure to develop Western blots, as described hereinabove in Example 7B, using polyclonal antisera recognizing either BU101 or Mam. […]
Protein extracted from breast tissue was fractionated using a MonoQ column at pH6 and eluted using increasing salt gradient. […] The MamBu complex is detected using both antibodies under non-reducing conditions (FIGS. 20C & D). […]

T1 sequence (Q13296 19-93 limits assumed): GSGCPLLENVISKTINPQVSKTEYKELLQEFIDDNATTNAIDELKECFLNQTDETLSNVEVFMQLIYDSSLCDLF

binding result: binds
B1: BU101 polypeptide from breast cancer tissue extract (other)
chain: EFCPALVSELLDFFFISEPLFKLSLAKFDAPPEAVAAKLGVKRCTDQMSLQKRSLIAEVLVKILKKCSV
notes: native protein in tissue extract, about 7 kD reduced
